Results taken from article PMC10883919.

Target: T1, TcrX D54A D54A (Mycobacterium tuberculosis H37Rv) (UniProt O69730)
T1 sequence: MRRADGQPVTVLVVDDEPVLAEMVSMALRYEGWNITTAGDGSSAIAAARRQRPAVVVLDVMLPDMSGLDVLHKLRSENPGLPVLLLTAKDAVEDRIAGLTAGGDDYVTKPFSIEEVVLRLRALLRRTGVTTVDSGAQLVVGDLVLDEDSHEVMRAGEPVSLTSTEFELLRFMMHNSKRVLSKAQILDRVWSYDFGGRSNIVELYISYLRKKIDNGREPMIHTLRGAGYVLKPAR
Test: EMSA

Sequence: TACGACACGCTCAACCGAGATGCGGTGCTGCGTCACAGCGTCAAGTATCCGCACACGGCTGAGCAGACGCCATGCGGATCCTATGTGCGCGCTATGAAACCCGATTTG (double strand) [PtcrXY]
- binding: binds
